According to the Human Domainome abundance scans (Beltran et al. 2025):
± gives the uncertainty stated by the source.

B1: Protein C-ets-1, residues 55 to 135; numbered along this chain, P14921 (parent)
chain: GFTKEQQRLGIPKDPRQWTETHVRDWVMWAVNEFSLKGVDFQKFCMNGAALCALGKDCFLELAPDFVGDILWEHLEILQKE

Variants of: B1
Assay: abundance fitness (aPCA) (normalised: wild type 0, dead -1); higher = more abundant; growth selection in yeast, the domain comes from the species named
Conditions: Homo sapiens

Variant	abundance fitness
GFTKEQQRLGIPKDPRQWTETHVYDWVMWAVNEFSLKGVDFQKFCMNGAALCALGKDCFLELAPDFVGDILWEHLEILQKE [R24Y]	-0.152 ± 0.088
GFTKEQQRLGIPKDPRQWTETHVRDWFMWAVNEFSLKGVDFQKFCMNGAALCALGKDCFLELAPDFVGDILWEHLEILQKE [V27F]	-0.214 ± 0.046
GFTKEQQRLGIPKDPRQWTETHVRDWSMWAVNEFSLKGVDFQKFCMNGAALCALGKDCFLELAPDFVGDILWEHLEILQKE [V27S]	-0.841 ± 0.046
GFTKEQQRLGIPKDPRQWTETHVRDWLMWAVNEFSLKGVDFQKFCMNGAALCALGKDCFLELAPDFVGDILWEHLEILQKE [V27L]	-0.013 ± 0.03
GFTKEQQRLGIPKDPRQWTETHVRDWKMWAVNEFSLKGVDFQKFCMNGAALCALGKDCFLELAPDFVGDILWEHLEILQKE [V27K]	-0.983 ± 0.39
GFTKEQQRLGIPKDPRQWTETHVRDWEMWAVNEFSLKGVDFQKFCMNGAALCALGKDCFLELAPDFVGDILWEHLEILQKE [V27E]	-1 ± 0.11
GFTKEQQRLGIPKDPRQWTETHVRDWDMWAVNEFSLKGVDFQKFCMNGAALCALGKDCFLELAPDFVGDILWEHLEILQKE [V27D]	-0.887 ± 0.11
GFTKEQQRLGIPKDPRQWTETHVRDWRMWAVNEFSLKGVDFQKFCMNGAALCALGKDCFLELAPDFVGDILWEHLEILQKE [V27R]	-0.876 ± 0.042
GFTKEQQRLGIPKDPRQWTETHVRDWCMWAVNEFSLKGVDFQKFCMNGAALCALGKDCFLELAPDFVGDILWEHLEILQKE [V27C]	-0.18 ± 0.044
GFTKEQQRLGIPKDPRQWTETHVRDWPMWAVNEFSLKGVDFQKFCMNGAALCALGKDCFLELAPDFVGDILWEHLEILQKE [V27P]	-0.86 ± 0.076
GFTKEQQRLGIPKDPRQWTETHVRDWWMWAVNEFSLKGVDFQKFCMNGAALCALGKDCFLELAPDFVGDILWEHLEILQKE [V27W]	-0.625 ± 0.06
GFTKEQQRLGIPKDPRQWTETHVRDWGMWAVNEFSLKGVDFQKFCMNGAALCALGKDCFLELAPDFVGDILWEHLEILQKE [V27G]	-0.739 ± 0.037
GFTKEQQRLGIPKDPRQWTETHVRDWNMWAVNEFSLKGVDFQKFCMNGAALCALGKDCFLELAPDFVGDILWEHLEILQKE [V27N]	-0.796 ± 0.16
GFTKEQQRLGIPKDPRQWTETHVRDWIMWAVNEFSLKGVDFQKFCMNGAALCALGKDCFLELAPDFVGDILWEHLEILQKE [V27I]	-0.003 ± 0.055
GFTKEQQRLGIPKDPRQWTETHVRDWMMWAVNEFSLKGVDFQKFCMNGAALCALGKDCFLELAPDFVGDILWEHLEILQKE [V27M]	-0.045 ± 0.049
GFTKEQQRLGIPKDPRQWTETHVRDWYMWAVNEFSLKGVDFQKFCMNGAALCALGKDCFLELAPDFVGDILWEHLEILQKE [V27Y]	-0.992 ± 0.19
GFTKEQQRLGIPKDPRQWTETHVRDWAMWAVNEFSLKGVDFQKFCMNGAALCALGKDCFLELAPDFVGDILWEHLEILQKE [V27A]	-0.2 ± 0.031

Variant	abundance fitness
GFTKEQQRLGIPKDPRQWTETHVRDWHMWAVNEFSLKGVDFQKFCMNGAALCALGKDCFLELAPDFVGDILWEHLEILQKE [V27H]	-0.931 ± 0.19
GFTKEQQRLGIPKDPRQWTETHVRDWVSWAVNEFSLKGVDFQKFCMNGAALCALGKDCFLELAPDFVGDILWEHLEILQKE [M28S]	0.017 ± 0.033
GFTKEQQRLGIPKDPRQWTETHVRDWVQWAVNEFSLKGVDFQKFCMNGAALCALGKDCFLELAPDFVGDILWEHLEILQKE [M28Q]	0.014 ± 0.049
GFTKEQQRLGIPKDPRQWTETHVRDWVTWAVNEFSLKGVDFQKFCMNGAALCALGKDCFLELAPDFVGDILWEHLEILQKE [M28T]	0.07 ± 0.045
GFTKEQQRLGIPKDPRQWTETHVRDWVNWAVNEFSLKGVDFQKFCMNGAALCALGKDCFLELAPDFVGDILWEHLEILQKE [M28N]	0.054 ± 0.06
GFTKEQQRLGIPKDPRQWTETHVRDWVKWAVNEFSLKGVDFQKFCMNGAALCALGKDCFLELAPDFVGDILWEHLEILQKE [M28K]	-0.016 ± 0.04
GFTKEQQRLGIPKDPRQWTETHVRDWVPWAVNEFSLKGVDFQKFCMNGAALCALGKDCFLELAPDFVGDILWEHLEILQKE [M28P]	-0.88 ± 0.069
GFTKEQQRLGIPKDPRQWTETHVRDWVEWAVNEFSLKGVDFQKFCMNGAALCALGKDCFLELAPDFVGDILWEHLEILQKE [M28E]	0.005 ± 0.047
GFTKEQQRLGIPKDPRQWTETHVRDWVLWAVNEFSLKGVDFQKFCMNGAALCALGKDCFLELAPDFVGDILWEHLEILQKE [M28L]	-0.022 ± 0.031
GFTKEQQRLGIPKDPRQWTETHVRDWVGWAVNEFSLKGVDFQKFCMNGAALCALGKDCFLELAPDFVGDILWEHLEILQKE [M28G]	-0.055 ± 0.028
GFTKEQQRLGIPKDPRQWTETHVRDWVAWAVNEFSLKGVDFQKFCMNGAALCALGKDCFLELAPDFVGDILWEHLEILQKE [M28A]	-0.026 ± 0.033
GFTKEQQRLGIPKDPRQWTETHVRDWVIWAVNEFSLKGVDFQKFCMNGAALCALGKDCFLELAPDFVGDILWEHLEILQKE [M28I]	0.006 ± 0.073
GFTKEQQRLGIPKDPRQWTETHVRDWVRWAVNEFSLKGVDFQKFCMNGAALCALGKDCFLELAPDFVGDILWEHLEILQKE [M28R]	-0.004 ± 0.029
GFTKEQQRLGIPKDPRQWTETHVRDWVFWAVNEFSLKGVDFQKFCMNGAALCALGKDCFLELAPDFVGDILWEHLEILQKE [M28F]	-0.088 ± 0.057
GFTKEQQRLGIPKDPRQWTETHVRDWVCWAVNEFSLKGVDFQKFCMNGAALCALGKDCFLELAPDFVGDILWEHLEILQKE [M28C]	-0.006 ± 0.054
GFTKEQQRLGIPKDPRQWTETHVRDMVMWAVNEFSLKGVDFQKFCMNGAALCALGKDCFLELAPDFVGDILWEHLEILQKE [W26M]	-0.898 ± 0.062
GFTKEQQRLGIPKDPRQWTETHVRDYVMWAVNEFSLKGVDFQKFCMNGAALCALGKDCFLELAPDFVGDILWEHLEILQKE [W26Y]	-0.281 ± 0.049
